Test results: the supplement of paper PMC12042874
± gives the uncertainty stated by the source.

Assay: amyloid nucleation score (Sup35N fusion, yeast selection) (log enrichment); library NNK1; higher = more nucleation; inactive = no reads after selection
Procedure, shortened: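 Using DiMSum, nucleation scores were taken as the log enrichment of output over input reads, centred on the mode score of non-aggregating sequences. The input and output reads came from Illumina sequencing of plasmid inserts, with sequences under 100 input reads excluded. The yeast were psi-negative, expressed Sup35N fused to peptides of 20 random codons, were induced with 100 μM copper sulfate for 24 hours, and were grown 7 days at 30°C on medium lacking adenine and uracil.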

Substance	amyloid nucleation score
VTKFLWYIPGPKIGRFYLSN	0.43 ± 0.38
VTLAQKLLDF	-0.421 ± 1.1
VTMVRYCALIQSYGGDGELV	0.26 ± 0.45
VTRLLTLPWHCRRIYLVNLY	-0.09 ± 0.97
VTVFEILWGMTT	inactive
VVARYYIQLFDRRDRN	6.678 ± 0.065
VVDFGSGCI	0.423 ± 0.46
VVFRGIVCCCQ	0.3 ± 0.58
VVGSVLRGSYTCLG	-0.972 ± 0.82
VVIESYC	0.593 ± 0.36
VVISIYGMYRSFTPQLWFKA	-0.603 ± 0.68
VVLEHVDYHS	0.822 ± 0.52
VVRTH	inactive
VVSRIDPCTWHCAMIKGHRY	-0.332 ± 1.1
VVSSAEQVHLGVVNGRRFLL	-0.003 ± 0.74
VVTDF	inactive
VVTEKGLPWARQW	-0.205 ± 0.33
VVVCSNLMYLNCNWAATNNL	7.163 ± 0.047
VVVGDSPNGNEEDDWSSC	-2.03 ± 2.7
VVWEQSIDVILGYMGLGPD	0.381 ± 0.49
VVWWGEQHGLYSYFGHGIGI	0.968 ± 0.63
VWACSPGDVAFMP	0.762 ± 0.97
VWGYVMRS	0.299 ± 0.95
VWLCLRIVVSGNNRACFICV	1.46 ± 0.19
VWLEYECKVLVLHYCFCRVR	0.72 ± 0.61

Substance	amyloid nucleation score
VWTGCVHCRRWDSGSLLNSW	-0.036 ± 0.91
VWYTRGRRHRGTTYMSNRLW	-0.28 ± 0.31
VYFRCTWAISMFFYMSNAGW	1.35 ± 0.21
VYGVPWYGLSYLFCTSVDID	6.252 ± 0.059
VYPFD	-1.32 ± 1.4
VYRCCLKAVCFIDVVTGLWG	-0.173 ± 0.71
VYSFDMM	0.256 ± 0.52
VYSMVFLMPCNRHDSFGRYS	6.578 ± 0.056
VYSMWTERQFLGMILGGEAG	-0.091 ± 0.85
VYSRPL	0.098 ± 0.57
VYSSMIVLKDALIPSSKTDA	0.999 ± 0.51
VYTSRDGNDLEACGGYSAIV	0.705 ± 0.71
WAHGLLFSYDSLHWYYICKV	0.304 ± 0.44
WAMDKGWKVNHCNEAPMIHC	-0.053 ± 0.37
WASMIHVEFYSNYFL	-0.017 ± 0.72
WATLALSR	0.5 ± 0.4
WCARNISRCPSNISGNLGMK	-0.461 ± 0.69
WCSDKSVGRAKDDDSGTRRC	-0.018 ± 0.46
WCSLRSDW	inactive
WDFDYSMCVLYMVTAIRLWR	-0.26 ± 0.54
WDKADVFLDDVSASRSSLKM	3.31 ± 0.088
WFASYCISFN	2.27 ± 0.21
WFDELGRDFLV	-0.193 ± 1.6
WFGYNIGPK	2 ± 0.28
WFYKLSSLFYNPLCL	-1.13 ± 0.41

Substance	amyloid nucleation score
WFYPWVLVWTLSCCVSRHKG	4.35 ± 0.14
WGCDLEAALY	0.016 ± 1.7
WGFRENETMV	-0.742 ± 0.46
WGIVVNQYVVRSVRLKLQDR	2.8 ± 0.13
WGLNWSNSNN	inactive
WGMWSGLLFGEFWCS	-0.424 ± 0.71
WHLWIVTTVTHMGSNNFLG	inactive
WHMVKSVSTNIV	-0.386 ± 0.58
WICVGYIVTTCSPELGEYRQ	inactive
WIILVHGGGKRLSVNIHLLC	-0.713 ± 0.32
WIWVYQTNKIKEMFMRRVWL	inactive
WKQMVLGVWCESLELL	-0.548 ± 0.56
WLFLTYNVMGLKVGKFAGHT	-0.437 ± 0.42
WLINTPTHWVFVDIVWYWSK	0.051 ± 0.84
WLMVLATGAYAMHWVVTSSL	2.98 ± 0.069
WLNFWILMSVMFVNMSSLFP	-1.01 ± 0.52
WLSHGIEVVVHKTSSVSYWR	-0.796 ± 1.1
WLSPQG	0.453 ± 0.62
WLVCNEGSIMDLASGLGLIR	0.561 ± 0.66
WLVQAQALQGWKCFLHKISF	-0.186 ± 0.48
WLVVHSQLFSSCNCLKNTVP	0.968 ± 0.35
WMALDYGYSTSHGNCYMEIS	1.23 ± 0.84
WMFTGVRLVSK	0.3 ± 0.43
WNCLCSGLTC	6.806 ± 0.055
WNGTFNVPWSFDFRCSWVGK	0.719 ± 0.79

Substance	amyloid nucleation score
WNPIAIYEGDGMQDAFCADL	-0.033 ± 0.38
WNVDVGSLC	inactive
WPASLSSCIS	-0.047 ± 0.66
WPTIPAVQCRRVVCSRDTWA	-0.185 ± 0.31
WPWHEHEQKWDKLCMLSWKR	inactive
WQQWGRSPRTR	0.368 ± 0.46
WQSFGVSGRLPYRQWSD	inactive
WRMCSHCVLPHSMFSDSNTV	-1.03 ± 1.3
WRMRYKC	-0.338 ± 1.2
WRVNVEVKYFAEKTVQECWV	0.817 ± 0.23
WSCKVMRVYRP	0.295 ± 0.4
WSKDNTIVEISYGTSGLVQL	0.39 ± 0.26
WSLWARWSFRHRCQRMHLLL	0.174 ± 0.4
WSMMCKWMNVERFIYMLKSC	0.394 ± 1.1
WSTCLCGYCCVI	1.31 ± 0.2
WSTNNCCYA	-1.38 ± 2.1
WTNSRHC	0.636 ± 0.38
WTTSVSL	-0.346 ± 0.84
WVCFIFIIFETVS	-0.207 ± 0.47
WVFVNYWSGSKNQ	2.96 ± 0.14
WVIVRYRNFCVCGRPSKDIG	0.263 ± 0.32
WVKCRDWYSILF	5.19 ± 0.089
WVLNG	-0.514 ± 0.34
WVRNSLCRQIRRSANHQSGA	inactive
WVRSNKGQAGSG	0.886 ± 1

Substance	amyloid nucleation score
WVRYFPCRIII	-1.27 ± 0.79
WVSPLVYDWYLT	-0.929 ± 2.7
WVVCVIDEGSSTFFINI	-0.556 ± 1.4
WVVISMSVRHVLACNLLPIR	-0.013 ± 0.76
WVWSLRLLGFNNLMDKATGF	-0.312 ± 0.24
WWALIHRPMVRVLGVQRVD	-0.297 ± 0.88
WWATWRLLCIDNTACWADRW	-0.177 ± 0.53
WWHSL	2.01 ± 0.62
WYKMSRRGQ	0.857 ± 1
WYRVCV	-0.603 ± 0.65
WYWELGLALKRWRYAANFGS	-0.19 ± 0.96
WYYDCWIYL	1.25 ± 0.46
WYYYTVSSEGSNSAGTKLRG	0.376 ± 0.38
YAFDMRMENTQVRYHVPLII	0.292 ± 0.73
YAKHFPVLRTCLLNSVWGQG	1.33 ± 0.57
YASGLNSHDELVFYFYNRER	inactive
YCDNDSYH	1.42 ± 0.44
YCDSWSVSFLICRSPFQNYM	-1.12 ± 0.56
YCGMKVDVVIVGRHVFRISF	0.512 ± 0.41
YCHCRFFDNLGCECLLR	-0.368 ± 1.9
YCQVYGSVWNFKRYYLATWS	-0.128 ± 0.55
YCVIHSIRLGRIHLDCFWDF	inactive
YDPPNCSAKSNQAGLKCTGA	2.22 ± 0.19
YDTTTHMRISMVGSSQPVCL	-0.327 ± 0.3
YDWAVSAS	-0.364 ± 0.61

Substance	amyloid nucleation score
YEGYGPCWRKLYS	0.15 ± 0.36
YELRFMRVEQGSQYREVS	-0.159 ± 0.37
YEYQEKFSFYIEVLGKDSLS	-0.864 ± 0.41
YFAHGSWRLSCFLVYWLMRP	inactive
YFCAMGNHVLVS	-0.389 ± 0.49
YFCFFSRMFTVEF	2.12 ± 0.64
YFDVL	-0.537 ± 0.48
YFFCVFI	8.469 ± 0.072
YFGKYLIWWFMSKLAV	-0.388 ± 0.29
YFHIESGLYYTWFMLYGPGR	0.154 ± 0.61
YFIDLISWL	0.198 ± 0.56
YFLGQMLISEGIMSVAFCVR	5.13 ± 0.073
YFRRCFDRCVMSRLRPI	-0.793 ± 0.61
YFTERL	0.122 ± 0.44
YFYDLSRCLFIHCTVGSQIL	7.769 ± 0.044
YGFKLGMFTGSIAMYAGHLI	-0.198 ± 0.31
YGGISMLLCRSVWRFNRQYI	0.547 ± 0.76
YGHCFDFGVRTVLFNGFSLI	1.29 ± 0.84
YGLDPHSAAEALLVRPNTGR	-0.18 ± 0.41
YGRKISYLKFLKCVDVVLGW	0.303 ± 0.28
YGSMVMDVEAR	-0.001 ± 0.45
YGSSLAAWVRLCVLTGDSRQ	1.46 ± 0.38
YGVNLPALLFKYAISGSLVG	1.03 ± 0.53
YGVRFGVFLSTCLNFSGEYR	-0.178 ± 0.42
YGYGY	-0.217 ± 0.23

Substance	amyloid nucleation score
YHANICSKFSSLYSNL	1.01 ± 0.93
YHGVTLVSLLRYKLW	1.28 ± 0.27
YHTSRYRCTMYMGNSHGAMP	0.228 ± 0.97
YHVYSVRSNVWALLKIRLV	1.14 ± 0.58
YIDVGICYGGDERVLFLV	1.2 ± 0.61
YIFAAWGGNKTHLCGQIKY	0.862 ± 0.18
YIKWSMIRFT	-0.66 ± 0.46
YIVRQECSRIQYLTDM	1.22 ± 0.73
YIVTTLQYDRSLASKVDEGT	-0.489 ± 0.56
YIWRNKKSAIRCDSKTVRRN	-0.286 ± 0.35
YKFKGSFVSIRQGAEVGYSA	-0.361 ± 0.69
YKGLFR	0.065 ± 0.45
YKGNKCCVKMMACWGTGCLP	1.98 ± 0.37
YKMCFSKVYESTEPMMCTGV	-0.904 ± 0.8
YKNVCSDSVTLRKPGRVVLL	-0.278 ± 0.67
YLALVSANNASKKAVVKSTE	-0.054 ± 0.72
YLCDSSLGVVYSFLHCRMVD	-0.369 ± 0.67
YLCFKYVLGCNRWSVAVVNF	inactive
YLFPDVTRICCMGWSFTLLS	5.27 ± 0.053
YLFQAGQDTRLLIC	0.236 ± 0.63
YLKINTTYGCDI	1.93 ± 0.34
YLPYVSLQSVHWIMVGWLN	-0.163 ± 0.8
YLREVYFFMGVWDRK	0.15 ± 0.44
YLVSTSRWGYLVLTLMWKEG	inactive
